Results reported in a protein production outcome set (Wang et al. 2014).

Test: label from the status in PepcDB records

Sequence | protein production
MIDTFERTGPLMEASSYPAWAQQLINDCSPAKARVVEHELYQQMRDAKLSPQIMRQYLIGGWPVVEQFAVYMAKNLTKTRFGRHPGEDMARRWLMRNIRVELNHADYWVNWCAAHDVTLEDLHDQRVAPELHALSHWCWQTSSSDSLAVAMAATNYAIEGATGEWSAVVCSTGVYAEAFAEETRKKSMKWLKMHAQYDDAHPWEALEIICTLVGNKPSLQLQAELRQAVTKSYDYMYLFLERCIQLDKVKSPRGRVAALEM | not failed
MIDVLVQLKSEELILKQRVITAVVALIIFIPIVFLGGTLIEIAALALAVVAMSEVLIMKRILLVTPEAIISILGTLFLVAPKSWMHDLPSQINTPFVSLIFAIALMVRVVFSKNRFNFDDAGVLTLTMLYIGFGFNMFVQARTVGLGMLMYLLLTVWSTDSGAYLVGRKIGKTKLAPQISPNKTWEGSIGGTIVAVIVGIIFSVTGLIHYGILATILMTLFLSIAGQLGDLVESSLKRYYGVKDSGRILPGHGGILDRFDSLLLVLPMAYLLGLL | failed
MIEEEAIVTQVEEHAIWVEKFRKSACGSCAGGCSTSLVARLLGGKPLRLRIATEARVAPGDRVIIGVEEGALLAGSFRMYLFPLFSLIGGALLGKLLAAQGLSATAEAGSIAGGLVGLGLTLVLLKYCPSLQRQNLHPVFIRRISR | failed
MIEIKQVKTQDEVNYTFVEKLMHTAFPQEERRDTVQQREYSDNNPRFCNNIILENGNSIGMISYWTMGDFYYIEHFAIDPSLRNGGYGKRVLEMIKKQLKGPIVLEVEEPNDEMSTRRIHFYKRLEFTLHKKPYIQPPYRKGDSGLPMLLMTYGDIDMESDFEKVKKTLYKEVYGQEI | not failed
MIERILASLILCLMLGIPFGMMFSFTGDVVLNFTFFWPLFMSGLWITGGLYFWFHYERHWRWGDGVIPDEPTGRPLVSILIPCYNEGPNVRETIEAALAQRYTHIEVIAVNDGSNDDTGDELNRLAEQYDKLRVIHLAHNQGKALALQAACAAAKSDLLVCIDGDALLDPDAVAYLINPLINNPRVGAVTGNPRIRTRSTLIGRIQVGEFSSIIGLIKRTQRVHGKVFTVSGVIAAFRRSALAEVGYWSPDMITEDIDISWKLQLRHWTIFFEPRALCWILMPEKLSGLWKQRLRWAQGGAEVFLKNFRHLWSWRYRRMWPLFLEYSISILWAFTYAVSVLLYLLGFLIELPEEIRVETLFPPAFTGMMIGVVCLIQFAVSMLIERRYEKDIGKYLFWVIWYPMVYWTLSLFTSLVSFPKVMLRSRKKRARWESPDRGIERG | failed
MIESMIIAGGMLVALLYMTACSDKLDVQQMYEFDLATLPVQTTIVKGEEAEIRCQLVRSGEYQDTKYFIRYFQPTGKGELRMENGTVLLPNDLYLLPEETFRLYYRSFGTDQQKIDIYILDSFGQVVQKSFAFNNLEHHHHHH | failed
MIEVAEIIAREIRRGKIVEIGVGFYLEVAKRLRESGIDILVVDINEKAINYARKQGIKGVVDDIFNPTLGIYKDAKAIYSIRPAPEMMKPLLDLARKLKIPLYIVPLTGDRTPNGMKLINYKGIPIYKWEP | not failed
MIEVLSVITSATVQDLGRWGYQRYGVPVSGVMDEVSARIANYLVGNPDNTPLIEFTAGGISIKFHTSAVFAVTGDATLYLNDTQLEPWESYWAKRGDVLTVRLSKGMYGYIAFSGGIECRKILGSCSTYLRAKFGGLLKPGDKLKLGYSLLTGKAGKRLPEELRPRFDKTVRVILGPNIEHFTPEGMRTFLTSEYTVTPESDRMGYRLEGPRIEHSEKGADIITEPIPRGAIQVPANGKPIIMLADAQTTGGYAKIATVIRVDIPMVVQTRPGEKLRFKAVSVNEAVQELRKRERI | not failed
MIEVVCNDRLGKKVRVKCNTDDTIGDLKKLIAAQTGTRWNKIVLKKWYTIFKDHVSLGDYEIHDGMNLELYYQ | not failed
MIFASDLDQTLIYSRKSFRAHIEDNSIQLIETLDGKEISFITYKTITLLIKLQLHSYFIPVTTRTIEQFQRITLFQNEIIPEYAITSNGGNILHNGKQDVTWNKEIKKRISVECIERNDILKEFEQIAHKDWVISQKTADDLFHYCIIKRENIPYDELSSFTSWLDKQGWNHSLQGRKLYFVPKPINKWDAVQYIQEILQMDTIITAGDSLLDLCMLEKANYAFAPLHGELGATYNHLQPHIVKTDAIGIYAAEEIVSKSLQIIHSSSPTS | failed
MIFDTEPDAMTLAPDDKPQDRHFDWSGVPIDLGGMEPLEQIARLLCHALVAPAAALTITEGGRLRVLAARGISSSHVEQAMELCKQVPPAPNGVTELIEHATLAQIKLGDAAFPGLPARFIACVPVGAPQTGISGTLCVIDTRERRLASQEHQQLLMFANVAAAQLELQFGAGRREPHSGLLNTRQLQSDLDALAFGSHSVPTIAAFIEVYDTQAANEARQALGMQPLEELVRHASYVLTRALRGKATVYHVASMRFAFFLLNSAPDEMEDLLLDLRDMLHKPVDAAGVPMSLTFHAGVVRFAPQQPDTNDVMRKGLVALGDAINNHAIVCWYSASHDDAIQRSYRLALDAEQALDAGDFRLVFQPRIDLEDLSVTGFEALLRWNHASMGPIGPDEFIPLFEKTALMCTVTNWVIESALVQLAKWRAQGLDFSMSINLSSRDFGNINLAADVINRCKDLAIPTTCIELEITEGRWLRSNVEAVPRLRALRDAGVSVAIDDFGTGYSNFGYLTELPVNVLKLDRSLVTGIATKTGMQMRAEAVVRLANALGYRTVAEGIEHADEIALLRSWGCDEAQGYLLAKPMEAHLVADYVKQTAALRRLP | failed
MIFIESITNSVPWVNSLALTLNSPLLATTNEAENAPIVLTGVLLTLVVIYLASKIGGELSRLVDLPPVLGELVAGVLVGASALHLVVFPESGAVAGDSVIMTILQFINNLTPDAVTAIFQSQSEAVSVLAELGVIILLFEIGLESDLKELQKVGYQATIVACVGVAVPFTAGTVGLISIFHAPVIPAIFAGAALTATSIGITSKVLSELGQLKSREGQIIVGAAVIDDILGIIVLAVVASLAKTGEVDVLNVIYLIVSATVFLIGSILLGKYFNQSFVAIANKLQTRGNLIIPAFIFAFFMAFLGNAIHLEAILGAFAAGLVLDETDKRKELDEQVKPIADILVPIFFVTVGAKVDLSVLNPVVPGNREGLIIATFLIVVAIIGKIVTGWAVFGQPGINRLAVGVGMIPRGEVGLVFAGIGSASGALDKPLQAAIIIMVILTTFLAPPLLRFAFKQSEEIKELEKADLLG | failed
MIFLIFSFIVLLIFGLANVYIYKRLIKKITLFKYFYKIFSFIFIVLFLAQAVFLIFRRDEYLSDTWYEILAMFYAPTYCLFFMTLAWDFVKLILALMGKRDKTYNLILRLIFELSLIVLSVFLIYVSINNALKTPEVKSVDVEIPNLKKDLKIVMLTDIHLGKNLHENFLDKLITKVNLQSPDMVVIVGDLIDTNPKDLKNYISKLNDFNSTYGTFYALGNHEYYHGINEVLDLLRKHTNMKILVNQNLDLGFINIAGLGDLAGLDRGLYAPDLARIKVDLNTSKASILLTHQPKTALLYDLSDFDLVLSGHTHGGQIFPFMFLVKLQQGFVHGLYDLGEKTKLYVSSGAGFWGPSLRVFAPSEIVILNLKGKK | failed
MIFMNMVNRERELQALKKRLSSNDLELIIIYGRRRIGKTFLIINAVNGYDFIYYLATEKNNLRKFKELTESKYEDIKYVKEDWEAIFHYLRDKIIIIDEFPYMIKEDESILSTFQKIVDETLKGSKTKLILLGSSISMMEDAISYKSPLYGRRTASIELKELKFKDLKGFNFSLIDAIHVYGFAGGVPFYLTKAKTPFLKWINAELKEVDSFIKDEIDFMLRYEFSEIGTYKEILHAISSGKNTLGEIKDFVRISGDVSSYLNKLEKIGIIGKEFPYKMKKGARYYIKDNFTLFWFTFIYPNLSLIEEGIYEIKEDEYNVYLGRIFEKIAREYVEDVYKVKVERLWFKDVEIDIYGDGIAGECKWSEGINGEKVLYELKRKVEDLGLDVKKYIIFAKSFSKTNEEAEFIDLKKLEQWYRTLEHHHHHH | not failed
MIFMRTEDVRRDIPLLRDHVYLDAASTTPTPLPVVRAMTEYFKEYNANTGRGAYSLVLRATRKLQEAREKVAGFINASSDEIVFTKNTSEAINIVAGGLRFRKGDSVVVPNIEHHSNFLPWLRLRERGVDVRVVKADEGGVVDPGRIEDAVDETTRLVTVTHISNALGTVQDVKEIGRIAHDVGALYLVDAAQSIGHMEVDVRAIGADFAAFPGHKGTLGPVGTGFLYCSTDVQGELEPLMLGGGTVLDVSEDGYVLEDFPAKFEAGTLNIAGFIGLGASIDYMNRIGIRRIQKHGMKMTEELHATVSSIDGIECYGDPQNIYGILSFNINNMDPHDVAKILDETAGICVRSGHHCAIPAMKHLALHETGGTVRASIHYYNTSEEIQLLGETLEEIAGMG | failed
MIFVLLICPLFIFIVSVIGTRKTKTYYVMPIVTFASFLIIGVIAFTPKFFFWVGMYSIFSFIVSYMTLLFVKGYEVAENAK | failed
MIGAILAGGYGKRLKPITDSIPKALVEIKDNYTIMDRQLFDFSIMGIEAVYILSGYLGNKIEERYGSRYRDMNIYYLREEKPLGTLYSLRNLIDEVKDDDIVLRNGDTVTDVNFLNFLKKAQDQKYYITMYVTRMKSPFGIVETFGDQIVQFREKPELNHYINAGLYYIKSDAFPYFFEKYIDRDLETTVFPRMAREGLIGSYTEEAMWIGIDSEKDLERIRADYRNREDYPWGYLKVLYDDDRSRLLEYAIKAGSDTEIDCGDGCILRIQSGLGTFGDSSDEKFRNGDVRSISGKVRVNAFENTRLELIISKKLEHHHHHH | failed
MIGDYERFKQLKKKVAEALNISEEELDRMIDKKIEENGGIILKDAALMMIAKEHGVYGEEKNDEEFLISDIEEGQIGVEITGVITDISEIKTFKRRDGSLGKYKRITIADKSGTIRMTLWDDLAELDVKVGDVIKIERARARKWRNNLELSSTSETKIKKLENYEGELPEIKDTYNIGELSPGMTATFEGEVISALPIKEFKRADGSIGKLKSFIVRDETGSIRVTLWDNLTDIDVGRGDYVRVRGYIREGYYGGLECTANYVEILKKGEKIESEEVNIEDLTKYEDGELVSVKGRVIAISNKKSVDLDGEIAKVQDIILDNGTGRVRVSFWRGKTALLENIKEGDLVRITNCRVKTFYDREGNKRTDLVATLETEVIKDENIEAPEYELKYCKIEDIYNRDVDWNDINLIAQVVEDYGVNEIEFEDKVRKVRNLLLEDGTGRIRLSLWDDLAEIEIKEGDIVEILHAYAKERGDYIDLVIGKYGRIIINPEGVEIKTNRKFIADIEDGETVEVRGAVVKILSDTLFLYLCPNCRKRVVEIDGIYNCPICGDVEPEEILRLNFVVDDGTGTLLCRAYDRRVEKMLKMNREELKNLTIEMVEDEILGEEFVLYGNVRVENDELIMVVRRVNDVDVEKEIRILEEME | failed
MIGKRFFQTTSKKIAFAFDIDGVLFRGKKPIAGASDALKLLNRNKIPYILLTNGGGFSERARTEFISSKLDVDVSPLQIIQSHTPYKSLVNKYSRILAVGTPSVRGVAEGYGFQDVVHQTDIVRYNRDIAPFSGLSDEQVMEYSRDIPDLTTKKFDAVLVFNDPHDWAADIQIISDAINSENGMLNTLRNEKSGKPSIPIYFSNQDLLWANPYKLNRFGQGAFRLLVRRLYLELNGEPLQDYTLGKPTKLTYDFAHHVLIDWEKRLSGKIGQSVKQKLPLLGTKPSTSPFHAVFMVGDNPASDIIGAQNYGWNSCLVKTGVYNEGDDLKECKPTLIVNDVFDAVTKTLEKYA | not failed
MIGLNTAAIYILQTLGSLYLLIVLLRFILQLVRADFYNPLSQFIVRATKPLLNPLRRIIPGFGGIDLASLVLAILIQLVLMILILMLMGYGVGGFIMQLLIWSIIAVTSLFLKVFFFALIISVILSWVAPGSYNPGAQLVNQICEPLLMPFRKLLPNLGGLDLSPIFAFLALKLIDMLVINNLAAMTGMPQQLSIFL | failed
MIGLNTAAIYVLQTLGSLYLLIILLRFVLQLVRANFYNPLCQFIVRATQPLLKPLRRIIPSLFGLDMSSLVLAIIVQMILMALTLLLMFGTTGDPLHLLLWSIIGVTALFLKIFFFALIISVILSWVAPGSHNPGAELVNQICEPALAPFRKIVPNLGGLDISPILAFLVLKLLDMLVINNLAAMSNMPDVLRLLM | failed
